Results reported in article PMC11066147.
“And” between values parts separate entries of the source, which are not always exact repeats. Equal entries are not always repeated.

How the values were obtained:
[1] = molecular target: PfHsp70-zLS (linker switch mutant of PfHsp70-z carrying the linker of canonical Hsp70) (Plasmodium falciparum) (UniProt Q8IC01); experiment: SPR
[2] = molecular target: PfHsp70-1LS (linker switch mutant of PfHsp70-1 carrying the linker of PfHsp70-z) (Plasmodium falciparum) (UniProt Q8IB24); experiment: SPR

| Binder | Kd [1] | koff [1] | kon [1] | Kd [2] |
| --- | --- | --- | --- | --- |
| Plasmodium falciparum Hsp110 (PfHsp70-z, PF3D7_0708800) (natural protein) MSVLGIDIGNDNSVVATINKGAINVVRNDISERLTPTLVGFTEKERLIGDSALSKLKSNYKNTCRNIKNLIGKIGTDVKDDIEIHEAYGDLIPCEYNYLGYEVEYKNEKVVFSAVRVLSALLSHLIKMAEKYIGKECKEIVLSYPPTFTNCQKECLLAATKIINANVLRIISDNTAVALDYGMYRMKEFKEDNGSLLVFVNIGYANTCVCVARFFSNKCEILCDIADSNLGGRNLDNELIKYITNIFVNNYKMNPLYKNNTPELCPMGTGRLNKFLVTSTASDQQNGINNKVRIKLQEVAIKTKKVLSANNEASIHVECLYEDLDCQGSINRETFEELCSNFFLTKLKHLLDTALCISKVNIQDIHSIEVLGGSTRVPFIQNFLQQYFQKPLSKTLIADESIARGCVLSAAMVSKHYKVKEYECVEKVTHPINVEWHNINDASKSNVEKLYTRDSLKKKVKKIVIPEKGHIKLTAYYENTPDLPSNCIKELGSCIVKINEKNDKIVESHVMTTFSNYDTFTFLGAQTVTKSVIKSKDEKKKADDKTEDKGEKKDAKDQEQNDDKDQTNDNNMNEKDTNDKKEKNNETNSPNKTELKKGEEGKVQTCYTTIPIETLLAQGSYSSKDIFNFSEQEINMQHSDILEGERLKHLNELETIIYESRSRLNGIYKNFVMDDERDRILLSLDDYENWLYDNIEENKNMFIKKKEEIRDLIKNIVQKFDVYNSKQQNLGNIINHLNNIITQCSNKPSDESQNIINRTTKFLNNINSLQEQEKNKPLYEPPVYTLNDIEAEFNEVTQLAQKFFSKLEVEELAKQKAKQEKEKEKEKEKEKEKEKEKNEETNLDANEEQNNEAKNNEEKENSTKNENSANPEE | 3.17 nM and 2.79 nM and 1.84 nM | 4.15e-05 s⁻¹ and 4.36e-05 s⁻¹ and 5.32e-05 s⁻¹ | 13100 M⁻¹ s⁻¹ and 23700 M⁻¹ s⁻¹ and 19100 M⁻¹ s⁻¹ | – |
| PfHop (natural protein) MVNKEEAQRLKELGNKCFQEGKYEEAVKYFSDAITNDPLDHVLYSNLSGAFASLGRFYEALESANKCISIKKDWPKGYIRKGCAEHGLRQLSNAEKTYLEGLKIDPNNKSLQDALSKVRNENMLENAQLIAHLNNIIENDPQLKSYKEENSNYPHELLNTIKSINSNPMNIRIILSTCHPKISEGVEKFFGFKFTGEGNDAEERQRQQREEEERRKKKEEEERKKKEEEEMKKQNRTPEQIQGDEHKLKGNEFYKQKKFDEALKEYEEAIQINPNDIMYHYNKAAVHIEMKNYDKAVETCLYAIENRYNFKAEFIQVAKLYNRLAISYINMKKYDLAIEAYRKSLVEDNNRATRNALKELERRKEKEEKEAYIDPDKAEEHKNKGNEYFKNNDFPNAKKEYDEAIRRNPNDAKLYSNRAAALTKLIEYPSALEDVMKAIELDPTFVKAYSRKGNLHFFMKDYYKALQAYNKGLELDPNNKECLEGYQRCAFKIDEMSKSEKVDEEQFKKSMADPEIQQIISDPQFQIILQKLNENPNSISEYIKDPKIFNGLQKLIAAGILKVR | – | – | – | 27.7 nM and 10 nM and 37.6 nM |
